B1: HDV Ribozyme (parent)
chain: GGCCGGCAUGGUCCCAGCCUCCUCGCUGGCGCCGGCUGGGCAACAUUCCGAGGGGACCGUCCCCUCGGUAAUGGCGAAUGGGACCCA

This data set covers variants of B1. Description: self-cleavage, relative activity (ratio to wild type); higher = more cleavage; co-transcriptional.
Consider U37C G68A, for which the self-cleavage came to 0.864.
The value for G1A U37C was 0.217; that for C48A was 0.989; that for A16C G80U was 0.171.
As for G59U G68U, the self-cleavage was 1.
The value for G50U G59U was 0.939.
The value for U60C C63G was 1.09; that for G6A C41A was 0.326.
The value for U46C G68U was 0.719.
Take G50A G55C: the self-cleavage was 0.81.
The value for C7U C61U was 0.831; that for U27A G59C was 0.939; that for C13U G68A was 0.502.
Consider C49U C61U, for which the self-cleavage came out at 0.851.
For the variant C3A A70G, the self-cleavage worked out at 0.686.
The value for U37G A45C was 0; that for G54C U60A was 1.08.
The value for A16G G76U was 1.29.
On to U9A C63G, for which the self-cleavage stood at 0.502.
The value for U9A U12A was 0.361.
To G54U C64U belongs 0.905.
The value for C75G G82U was 0.215; that for G50C U65A was 0.919; that for G52U A83U was 0.494.
G11C A70G: the self-cleavage stood at 0.0692.
To G17C C19U belongs 0.128; to G11A G25A, 0.0755; to U23C C24U, 0.57.
The value for C30G A42G was 0.0415; that for G67A C75G was 0.181; that for C66U G82U was 0.277.
The value for C14A C58G was 0.762; that for C3U G55C was 0.867.
Consider A8C G28C, for which the self-cleavage came to 0.
The value for C13U C15A was 0.482.
To G2C U69A belongs 0.0252.
G11C C22U: the self-cleavage is 0.0817.
To U9C A16G belongs 1.51; to G39C G40A, 0.695; to U12A C57U, 0.246.
In the case of G34C U47G, the self-cleavage came to 0.133.
Turning to G55A U79A, the self-cleavage turned out to be 0.582.
Take C18A G38A: the self-cleavage came to 0.113.
To G35U G59U belongs 0.53; to C15U C30G, 0.0707.
Turning to C58G G81A, the self-cleavage is 0.243.
For G6C G76A, the self-cleavage was determined as 0.297.
In the case of A71G C86U, the self-cleavage is 0.665.
To G80A G82U belongs 0.0511; to C26G A70U, 0.875; to U9G G68U, 0.782.
To C3U C4A belongs 0.0817; to G39A A87C, 0.578.
To G28A belongs 0.0977; to C26A A45U, 1.19; to A56C C85A, 0.806.
In the case of U12G C57U, the self-cleavage was 0.831.
C36U U47A: the self-cleavage worked out at 0.481.
Turning to G11A C14A, the self-cleavage was found to be 0.148.
G38A C66A: the self-cleavage came out at 0.0992.
The value for G34U C49A was 0.151.
The value for U46A C49A was 0.665; that for C15U A16C was 1.33; that for G25C G31A was 0.135.
For G6A A77C, the self-cleavage was determined as 0.178.
Turning to G5C U37C, the self-cleavage was found to be 0.161.
For C22U A83C, the self-cleavage was 0.298.
For the variant G40A A70G, the self-cleavage is 0.914.
Regarding C24U U72G, the self-cleavage is 0.323.
To A51U A70G belongs 0.972; to U12G U69A, 0.997; to U20C G74U, 0.104.
For C22A G55C, the self-cleavage worked out at 0.262.
The value for G54A U79C was 0.411; that for G10C G54U was 0.897; that for C15A C36U was 0.253.
To C7G C18U belongs 0.0639.
Consider U47C A77C, for which the self-cleavage was 0.317.
To G39U G40C belongs 0.451.
Consider U20C G68U, for which the self-cleavage was 0.145.
For the variant U20G U69G, the self-cleavage is 0.0831.
The value for G25U G34U was 0.026.
The value for A16C A43G was 0.138; that for A45C G59U was 0.507.
To G25U C44U belongs 0.119; to G35U G67A, 0.506.
For the variant U12G A42U, the self-cleavage was 0.415.
To G40U A51U belongs 0.806; to G28A C75G, 0; to G53C G54A, 1.08.
To C14U C24G belongs 0.121; to C15G G73C, 0.231.
The value for C13G G38C was 0.0504; that for C22A G39U was 0.166; that for C49G G82C was 0.16.
As to C7A A77U, the self-cleavage was found to be 0.0875.
With G31U G74U, the self-cleavage came out at 0.136.
Take G53C G80C: the self-cleavage was determined as 0.0755.
Consider G31C G35U, for which the self-cleavage is 0.158.
For U12G U79G, the self-cleavage was determined as 0.639.
To G59C C84G belongs 0.831.
The value for C19A C57A was 0.0801; that for C26U C85G was 1.22.
The value for C33G C36U was 0.0997.
Consider G50A G52A, for which the self-cleavage amounted to 0.888.
On to C22U C32A, for which the self-cleavage was found to be 0.117.
On to C13A U37C, for which the self-cleavage came out at 0.131.
The value for G17A U72G was 0.378; that for C7U G59U was 0.812.
Regarding G10A C86U, the self-cleavage is 0.774.
C15U G73C: the self-cleavage was 0.429.
To G28U C32A belongs 0.0496; to G50C U60G, 1.03; to G34U U37G, 0.0519.
For the variant G6A C26U, the self-cleavage amounted to 0.787.
To A43C G73A belongs 0.407; to C4U C75A, 0.128.
The value for C4U C75U was 0.155.
Turning to C48A C57G, the self-cleavage is 1.18.
To C14G A87G belongs 0.683; to G11C A51G, 0.297; to C24A A83U, 0.415.
The value for C44G A71G was 0.646.
Consider G2U G11U, for which the self-cleavage amounted to 0.0529.
The value for U12C C22G was 0.
The value for C19A C49U was 0.185.
Turning to A56U A83G, the self-cleavage was determined as 0.876.
The value for C3A C61A was 0.596; that for C26U U60G was 0.831; that for U47A G54C was 1.01.
Regarding G5A C41U, the self-cleavage is 0.277.
To C7A C33A belongs 0.0639; to G59C A87U, 0.981.
To A16G A70G belongs 1.33.
As for C24U G39C, the self-cleavage worked out at 0.0302.
To C26A G53U belongs 0.932; to A56U A78C, 0.272.
C49G G76A: the self-cleavage was found to be 1.1.
On to A45C C57G, for which the self-cleavage turned out to be 0.851.
For the variant C33A C61A, the self-cleavage turned out to be 0.281.
The value for A8G C18G was 0; that for G34A U46C was 0.215; that for C30G C41A was 0.0361.
To G31C A70U belongs 0.128.
To C48A C49U belongs 1.23.
For C24G U69C, the self-cleavage is 0.0354.
The value for C15A G76C was 0.767; that for G38C C61A was 0.218.
The value for G35A U46C was 0.289; that for G10C A78U was 0.222; that for C19U C57A was 0.0886.
To C19A C44G belongs 0.0615.
For C86G A87G, the self-cleavage came to 0.905.
To U23G U37C belongs 0.751.
To G11A G54U belongs 0.391; to C41U G74U, 0.806.
The value for U20C G38U was 0; that for G5C C15G was 0.249; that for U27C G80U was 0.21.
For the variant C19U A43U, the self-cleavage was found to be 0.104.
The value for C15G C86G was 0.317; that for C41U C61G was 0.923.
The value for G11A G82A was 0.253; that for C33G C58U was 0.147.
To C14A C30G belongs 0; to G17C G80U, 0.0588.
On to C44U A56G, for which the self-cleavage stood at 0.939.
